Assay results taken from patent US6716811B1, “Compounds having affinity for the granulocyte-colony stimulating factor receptor (G-CSFR) and associated uses” (Affymax, Inc., priority 2000, dated 2004).
Each block holds one molecule with its values, some of them ahead of it. Where a SMILES comes first, the peptide text is derived from it. Where no end group is shown, it is not given here. MBP = maltose binding protein

What was measured:
Parental Ba/F3 cells = assay: Proliferation of parental Ba/F3 cells; type: cell-based, Murine
G-CSFR [1] = target: T1, G-CSFR (Homo sapiens, UniProt Q99062); assay: Ba/F3 G-CSFR cell proliferation assay; type: cell-based; set-up: expression vectors encoding the full length human G-CSFR; expressed in transfected cells; host or cells: murine IL-3 dependent Ba/F3 cells; details: MBP fusion protein
T1 sequence (Q99062 25-836): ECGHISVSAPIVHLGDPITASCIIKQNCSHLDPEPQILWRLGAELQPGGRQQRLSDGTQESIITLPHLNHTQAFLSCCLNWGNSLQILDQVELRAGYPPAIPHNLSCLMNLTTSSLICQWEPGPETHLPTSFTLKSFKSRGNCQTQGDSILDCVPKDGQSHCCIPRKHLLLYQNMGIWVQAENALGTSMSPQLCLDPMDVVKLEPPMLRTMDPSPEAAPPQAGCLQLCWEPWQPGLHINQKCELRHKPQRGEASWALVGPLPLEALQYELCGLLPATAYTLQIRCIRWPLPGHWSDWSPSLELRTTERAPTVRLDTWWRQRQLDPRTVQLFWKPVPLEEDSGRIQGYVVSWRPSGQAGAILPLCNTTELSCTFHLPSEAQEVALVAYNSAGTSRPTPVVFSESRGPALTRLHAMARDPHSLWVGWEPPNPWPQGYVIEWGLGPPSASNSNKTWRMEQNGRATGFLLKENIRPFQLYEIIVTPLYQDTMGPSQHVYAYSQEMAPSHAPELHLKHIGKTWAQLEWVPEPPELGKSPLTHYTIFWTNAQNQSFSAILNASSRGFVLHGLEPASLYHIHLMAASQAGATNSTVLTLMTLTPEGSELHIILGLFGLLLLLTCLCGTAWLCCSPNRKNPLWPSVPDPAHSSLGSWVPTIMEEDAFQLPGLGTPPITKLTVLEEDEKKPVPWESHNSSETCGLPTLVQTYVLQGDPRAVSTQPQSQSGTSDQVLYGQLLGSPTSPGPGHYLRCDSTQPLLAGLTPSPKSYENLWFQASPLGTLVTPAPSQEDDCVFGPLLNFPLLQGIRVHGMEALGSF
Description: (§1) The bioactivity of selected peptides of the invention was measured in cell-based assays. […] Murine IL-3 dependent Ba/F3 cells were co-transfected with expression vectors encoding the full length human G-CSFR and a luciferase reporter gene controlled by the fos promoter.
(§2) This is true for most of the MBP fusions tested. Presumably the fusion protein is dimerized through intermolecular disulfide bonds between cysteine residues present in the peptide sequence.

[2] = target: T2, human thrombopoietin receptor (Homo sapiens, UniProt P40238); assay: Proliferation of Ba/F3 cells expressing the human thrombopoietin receptor; type: cell-based
T2 construct: expressed in transfected cells; host or cells: Ba/F3 cells
T2 sequence (P40238 26-635): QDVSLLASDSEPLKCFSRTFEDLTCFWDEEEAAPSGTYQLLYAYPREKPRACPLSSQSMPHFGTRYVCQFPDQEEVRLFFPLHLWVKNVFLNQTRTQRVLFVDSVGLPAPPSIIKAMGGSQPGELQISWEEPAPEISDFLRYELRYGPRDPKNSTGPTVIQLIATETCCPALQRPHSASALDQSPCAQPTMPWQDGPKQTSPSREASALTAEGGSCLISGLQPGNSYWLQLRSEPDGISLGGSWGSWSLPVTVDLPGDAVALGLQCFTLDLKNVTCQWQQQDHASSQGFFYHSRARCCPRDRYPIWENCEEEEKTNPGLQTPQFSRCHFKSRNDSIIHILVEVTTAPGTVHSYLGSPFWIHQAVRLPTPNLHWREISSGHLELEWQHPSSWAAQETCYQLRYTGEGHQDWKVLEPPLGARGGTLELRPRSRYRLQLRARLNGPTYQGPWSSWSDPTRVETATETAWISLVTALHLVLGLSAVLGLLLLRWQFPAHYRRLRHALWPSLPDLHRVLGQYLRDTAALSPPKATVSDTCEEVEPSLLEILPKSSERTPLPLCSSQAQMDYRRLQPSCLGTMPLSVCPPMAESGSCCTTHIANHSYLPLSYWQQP
Source text: as §2

G-CSF receptor [3] = target: T3, G-CSF receptor (Homo sapiens, UniProt Q99062); assay: ELISA format competitive G-CSF receptor-binding assay; details: HPLC fractions of oxidized AF15846
T3 sequence (Q99062 25-836): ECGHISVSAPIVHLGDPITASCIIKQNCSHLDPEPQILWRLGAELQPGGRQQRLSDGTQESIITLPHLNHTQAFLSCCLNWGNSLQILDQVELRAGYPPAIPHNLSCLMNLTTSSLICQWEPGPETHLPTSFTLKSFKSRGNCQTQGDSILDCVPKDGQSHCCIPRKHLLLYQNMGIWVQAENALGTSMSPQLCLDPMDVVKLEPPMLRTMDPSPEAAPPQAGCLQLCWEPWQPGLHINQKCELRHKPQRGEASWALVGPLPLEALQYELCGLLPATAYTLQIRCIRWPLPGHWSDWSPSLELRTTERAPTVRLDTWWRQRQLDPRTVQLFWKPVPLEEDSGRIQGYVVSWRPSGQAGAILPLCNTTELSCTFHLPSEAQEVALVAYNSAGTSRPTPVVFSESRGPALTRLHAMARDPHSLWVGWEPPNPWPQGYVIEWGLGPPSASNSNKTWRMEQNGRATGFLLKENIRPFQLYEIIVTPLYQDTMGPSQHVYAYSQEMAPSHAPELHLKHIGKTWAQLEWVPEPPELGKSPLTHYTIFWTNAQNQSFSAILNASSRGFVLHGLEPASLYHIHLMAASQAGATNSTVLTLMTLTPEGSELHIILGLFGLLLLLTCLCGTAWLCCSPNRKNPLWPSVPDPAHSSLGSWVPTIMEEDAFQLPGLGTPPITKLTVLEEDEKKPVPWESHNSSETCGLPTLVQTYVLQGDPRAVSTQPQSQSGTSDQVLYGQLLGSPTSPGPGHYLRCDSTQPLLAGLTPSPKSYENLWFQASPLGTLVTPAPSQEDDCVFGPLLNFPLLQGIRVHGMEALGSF
Source text: (§3) Several fractions containing oxidized AF15846 resulting from treatment under the conditions described above were collected subjected to testing in two assays: an ^125I-G-CSF competition binding assay and an ELISA format competitive G-CSF receptor-binding assay.

G-CSF receptor [4] = target: T3, G-CSF receptor; assay: 125I-G-CSF competition binding assay of oxidized AF15846 fractions; details: HPLC fractions of oxidized AF15846; FIG. 4
Source text: as §3

[5] = Incubation of oxidized peptide at 37° C., HPLC pattern; type: physicochemical; details: pH 6.0 or pH 7.5, clean profiles only at pH 4.1
Description: The oxidized peptide was also reacted with N-ethylmaleimide (NEM) at 37° C. for 1 hour in 100 mM ammonium acetate, pH 4.1 to see if any free Cys residues remained in the molecule. If this were the case, treatment with the alkylating reagent would result in a shift of the HPLC retention time. Upon incubation with NEM, no such shift was seen (FIG. 7). In contrast, when the oxidized peptide was incubated with the disulfide specific reducing agent TCEP, also in ammonium acetate, a shift to a later retention time, consistent with reduced peptide, was found. The reduced peptide was modified with NEM to produce a peptide that eluted even later than the reduced form.
It was necessary to drop to pH 4.1 to obtain clean profiles upon NEM treatment.

G-CSFR [6] = target: T1, G-CSFR; assay: Ba/F3 G-CSFR reporter cell (fos promoter/luciferase) assay; type: cell-based; set-up: expression vectors encoding the full length human G-CSFR; expressed in transfected cells; host or cells: murine IL-3 dependent Ba/F3 cells
Description: as §1
Reporter cell assays were performed on the above cell line using peptides of the invention. The cells were maintained in complete RPMI-164Q media containing 10% fetal calf serum, 2 mM L-glutamine, 1X antibiotic-antimycotic solution (Life Technologies), and 10% WEHI-3 conditioned media (source of murine IL-3). For reporter assays, cells were starved overnight in medium which lacks WEHI-3 to reduce luciferase expression to background levels. The cells were then washed twice in PBS, resuspended in media which lacks WEHI-3 conditioned media, and added to wells of a 96-well microtiter plate containing dilutions of peptide or G-CSF at 5×10^4 cells/well. Plates were incubated for 2 hours at 37° C. in a humidified 5% CO2 incubator and luciferase activity was measured by the addition of luciferin (LucLite—Packard Biosciences) to each well. The plates were read in a TopCount (Wallac) microtiter plate luminometer.
To measure the ability of selected peptides of the invention to block G-CSF mediated receptor activation, dilutions of peptide were combined with Ba/F3 G-CSFR reporter cells as described above. After a 30-minute incubation at 37° C., G-CSF was added to each well. The cells were incubated for 2 hours at 37° C. and the amount of luciferase produced was measured as described above.
Ligand mediated G-CSF receptor activation in these cells results in the expression of luciferase, providing a detectable biological signal.
A biosassay was used to measure the potency of AF15846 and other possible G-CSF receptor antagonists. This bioassay utilizes a Ba/F3 cell line containing the rhGCSF receptor and a c-fos promoter/luciferase gene construct (Ba/F3/rhGCSF-R/pFos-1cf). Competent binding of a ligand to the receptor results in expression of lucifierase as the biological readout.

NFS-60 cells = assay: Cell-based assays using NFS-60 cells; set-up: species or system Murine
[7] = Stability in cell culture medium (NFS-60-conditioned medium); type: in vitro ADME; details: overnight incubation in NFS-60-conditioned medium
G-CSFR [8] = target: T1, G-CSFR; set-up: made in house; details: read-out: observed affinity for its receptor; cited from earlier work

concentration of maximal activity in Ba/F3 G-CSFR cell proliferation assay (G-CSFR [1]): 100 nM | proliferation in response to fusion protein [2]: did not proliferate
Molecule: MBP fusion protein of Example 78: Example 78 peptide fused to the carboxy-terminus of the maltose binding protein (MBP); monomeric and dimeric species ({MBP}-LLDICELKLQECARRCN; cysteine pairing not given here; also: monomeric and dimeric species)
proliferation in response to fusion protein (Parental Ba/F3 cells): did not proliferate

activity of fractions in ELISA format competitive G-CSF receptor-binding assay (G-CSF receptor [3]): highest activity | activity of fractions in 125I-G-CSF competition binding assay (G-CSF receptor [4]): highest activity
Molecule: Tris-oxidized species: active oxidized dimer of AF15846 formed in 50 mM Tris, pH 8 (LLDICELKLQECARRCN; also: homodimer of two chains joined by three parallel interchain disulfides, disulfide at 5, other end not in the chain, disulfide at 12, other end not in the chain, disulfide at 16, other end not in the chain)
stability on incubation at higher pH [5]: disulfide scrambling and/or degradation

effect on G-CSF response (luciferase) (G-CSFR [6]; increasing concentrations of peptide added before G-CSF, FIG. 3): G-CSFR antagonist
Molecule: CC[C@H](C)[C@H](NC(=O)[C@H](CC(=O)O)NC(=O)[C@H](CC(C)C)NC(=O)[C@@H](N)CC(C)C)C(=O)N[C@@H](CS)C(=O)N[C@@H](CCC(=O)O)C(=O)N[C@@H](CC(C)C)C(=O)N[C@@H](CCCCN)C(=O)N[C@@H](CC(C)C)C(=O)N[C@@H](CCC(N)=O)C(=O)N[C@@H](CCC(=O)O)C(=O)N[C@@H](CS)C(=O)N[C@@H](C)C(=O)N[C@@H](CCCNC(=N)N)C(=O)N[C@@H](CCCNC(=N)N)C(=O)N[C@@H](CS)C(=O)N[C@@H](CC(N)=O)C(=O)O [Example 53, LLDICELKLQECARRCN] (H-LLDICELKLQECARRCN-OH; N-terminus and C-terminus assumed)
effect on G-CSF dose-response curve (luciferase) (G-CSFR [6]; Ba/F3/rhGCSF-R/pFos-lcf, FIGS. 10A, 10B, 11): dose-response curve shifting to higher concentrations

stability in cell culture medium [7]: no loss of activity was observed
Molecule: EQSNSGWVWV-NH2 [Example 74]
antagonist activity in cell-based assays (NFS-60 cells): antagonist activity at high concentrations

luciferase response of reporter cells (G-CSFR [6]; ligand alone, FIG. 2): dose dependent manner
B1: Granulocyte-colony stimulating factor (protein)
chain: TPLGPASSLPQSFLLKCLEQVRKIQGDGAALQEKLCATYKLCHPEELVLLGHSLGIPWAPLSSCPSQALQLAGCLSQLHSGLFLYQGLLQALEGISPELGPTLDTLQLDVADFATTIWQQMEELGMAPALQPTQGAMPAFASAFQRRAGGVLVASHLQSFLEVSYRVLRHLAQP
Kd (G-CSFR [8]): ~0.1 nM
